{"source": "patent US20230220589A1", "binders": {"B1": {"name": "SEQ ID NO 56 (designed binder, not shown: small tags and cut ends; large carriers)", "chain": "QIPLCANLVPVPITNATLDRITGKWFLIASAIRNEEYNKSVQAVQSTAFYWTPNKTEDTIFARYYQTRQNQCFYNSSYLNVQRENGTVSWYAGGREFVSHLLFLRYTKTLMWGGYLDDEKNWGLEFYADKPETTKEQLGEFYEALDCLRIPRSDVMYTDWKKDKCEPLEKQHEKERKQEEGES"}, "B2": {"name": "engineered M12-F binder (SEQ ID NO: 50) (designed binder, not shown: small tags and cut ends; large carriers)", "chain": "GPVPTPPDNIQVQENFNISRIYGKWYPLAMGSTSPYLKKSMDIMTPSYLVLGEGATEAEISWTETFWRKGVCEEGSGALEKTDTDGKFLYHKSKWNITEERYVVHTNYDEYAIVLVKKFSRHHGPTIEAVLMGRAPQLRETLLQDFRVVAQGVGIPEDSIFTMADRGECVPGEQ"}, "B3": {"name": "SEQ ID NO 51 (designed binder, not shown: small tags and cut ends; large carriers)", "chain": "QIPLCANLVPVPITNATLDRITGKWFHIASAIRNEEYNKSVQRQQSTHFYITPNKTEDTIFTRVYQTRQNQCFYNSSYLNVQRENGTVSLYSGGREVVGHLLFLRDTKTLMWGTYLDDEKNWGLEFWADKPETTKEQLGEFYEALDCLRIPRSDVMYTDWKKDKCEPLEKQHEKERKQEEGES"}, "B4": {"name": "SEQ ID NO 45 (designed binder, not shown: small tags and cut ends; large carriers)", "chain": "TVPDRSEIAGKWYVVALASNTEFLLREKDSLKSAMARISFLGEDELKVSYARPLPNGCLKLEATMKKTSDDGEVYLSRSAKLKVEVLDTDYKSYAVIYATPVKDGRTRHYMALYSRSPEVSPAATAIFRKLAGERNYTDEMVAMLPRQEECTVDEV"}, "B5": {"name": "SEQ ID NO 55 (designed binder, not shown: small tags and cut ends; large carriers)", "chain": "QIPLCANLVPVPITNATLDRITGKWFRIASAFRNEEYKKSVQEVQTTSFYFTPNKTEDTIFARFYQTRQNQCFYNSSYLNVQRENGTVSLYSGGREAVLHLLFLRDTKTLMLGVYLDDEKNWGLSFYADKPETTKEQLGEFYEALDCLRIPRSDVMYTDWKKDKCEPLEKQHEKERKQEEGES"}, "B6": {"name": "engineered M12-L binder (SEQ ID NO: 49) (designed binder, not shown: small tags and cut ends; large carriers)", "chain": "QVSVQPNFQQDKFLGRWFVAGIASNSSWSREKIAALSFAKGVVAPATDGGLNYTETVLRKNQCETQTVLLQPAGSLGSYSARSPHQGSTRSFSVVETDYDQYALLYAQGSKGPGEDDRVAGLWSRTQTPRAELKEKFTAFSKAQGFTEDTIVFLPQTDKCMTEQ"}, "B7": {"name": "SEQ ID NO 53 (designed binder, not shown: small tags and cut ends; large carriers)", "chain": "QIPLCANLVPVPITNATLDRITGKWFLIASASRNEEYNKSVQGSQNTAFYFTPNKTEDTIFLRRYQTRQNQCFYNSSYLNVQRENGTVSSYFGGRENVIHLLFLRDTKTLMLGRYLDDEKNWGLEFYADKPETTKEQLGEFYEALDCLRIPRSDVMYTDWKKDKCEPLEKQHEKERKQEEGES"}, "B8": {"name": "SEQ ID NO 27 (designed binder, not shown: small tags and cut ends; large carriers)", "chain": "QVSVQPNFQQDKFLGRWFIAGQASNSSWQREKCAALSRAKVVVAPATDGGLNLTMTLLRKNQCETRTTLLQPAGSLGSYSYRSPHLGSTVSWSVVETDYDQYALMYVQGSKGPGEDQRFAILWSRTQTPRAELKEKFTAFSKAQGFTEDTIVFLPQTDKCMTEQ"}, "B9": {"name": "SEQ ID NO 52 (designed binder, not shown: small tags and cut ends; large carriers)", "chain": "QIPLCANLVPVPITNATLDRITGKWFIIASASRNEEYNKSVQQAQSTAFYITPNKTEDTIFLRRYQTRQNQCFYNSSYLNVQRENGTVSYYRGGRERVSHLLFLRDTKTLMIGSYLDDEKNWGLVFGADKPETTKEQLGEFYEALDCLRIPRSDVMYTDWKKDKCEPLEKQHEKERKQEEGES"}, "B10": {"name": "SEQ ID NO 48 (designed binder, not shown: small tags and cut ends; large carriers)", "chain": "QDSTQNLIPAPSLLTVPLQPDFRSDQFRGRWYVVGLAGNAVQKKTEGSFTMLSLIYELQENNSYNVTAIFVRDQDQGCRYVIDTLVPSSRAGQFTPGSMGRFPQVQSYNVQVATTDYNQFAMVFVRVTSENKQYFEITLLGRTKELSPELKERFTRFAKSLGLKDDNIIFSVPTDQCIDNSAWSHPQFEK"}, "B11": {"name": "SEQ ID NO 54 (designed binder, not shown: small tags and cut ends; large carriers)", "chain": "QIPLCANLVPVPITNATLDRITGKWFVIASATRNEEYNKSVQRQQGTVFYYTPNKTEDTIFVRRYQTRQNQCFYNSSYLNVQRENGTVSFYEGGRELVFHLLFLRDTKTLMWGLYLDDEKNWGLEFFADKPETTKEQLGEFYEALDCLRIPRSDVMYTDWKKDKCEPLEKQHEKERKQEEGES"}}, "key": {"[1]": {"target": "M90-modified M NTAA target peptide", "assay": "affinity comparison between P1 residues (method not specified; BLI / encoding assay)"}, "[2]": {"target": "M12-modified F NTAA target peptides (M12-F-P2-peptide)", "assay": "multiplex encoding assay on 288 immobilized peptides (FIG. 9); holds for at least 14 P2 residues"}, "[3]": {"target": "M90-modified F NTAA target peptide", "assay": "affinity comparison between P1 residues (method not specified; BLI / encoding assay)"}, "[4]": {"target": "M44-modified Y NTAA target peptides (M44-Y-P2-peptide)", "assay": "Gini coefficient of P1 selectivity from multiplex encoding heatmap"}, "[5]": {"target": "M44-modified Y NTAA target peptides (M44-Y-P2-peptide)", "assay": "Gini coefficient of P2 tolerance from multiplex encoding heatmap"}, "[6]": {"target": "M90-modified H NTAA target peptide", "assay": "affinity comparison between P1 residues (method not specified; BLI / encoding assay)"}, "[7]": {"target": "M12-modified L NTAA target peptides (M12-L-P2-peptide)", "assay": "multiplex encoding assay on 288 immobilized peptides (FIG. 10); holds for at least 11 P2 residues"}, "[8]": {"target": "M90-modified L NTAA target peptide", "assay": "affinity comparison between P1 residues (method not specified; BLI / encoding assay)"}, "[9]": {"target": "M48-modified L NTAA target peptides (M48-L-P2-peptide)", "assay": "Gini coefficient of P1 selectivity from multiplex encoding heatmap"}, "[10]": {"target": "M48-modified L NTAA target peptides (M48-L-P2-peptide)", "assay": "Gini coefficient of P2 tolerance from multiplex encoding heatmap"}, "[11]": {"target": "M90-modified W NTAA target peptide", "assay": "affinity comparison between P1 residues (method not specified; BLI / encoding assay)"}, "[12]": {"target": "M2014-modified Y NTAA target peptides (M2014-Y-P2-peptide)", "assay": "Gini coefficient of P1 selectivity from multiplex encoding heatmap"}, "[13]": {"target": "M2014-modified Y NTAA target peptides (M2014-Y-P2-peptide)", "assay": "Gini coefficient of P2 tolerance from multiplex encoding heatmap"}, "[14]": {"target": "M90-modified A NTAA target peptide", "assay": "affinity comparison between P1 residues (method not specified; BLI / encoding assay)"}}, "data": [{"binder": "B1", "values": [{"measurement": "fold affinity over an otherwise identical peptide with a different P1", "setting": "[1]", "value": "> 2", "unit": "fold"}]}, {"binder": "B2", "values": [{"measurement": "encoding efficiency (fraction of recording tags encoded)", "setting": "[2]", "value": "> 0.15"}]}, {"binder": "B3", "values": [{"measurement": "fold affinity over an otherwise identical peptide with a different P1", "setting": "[3]", "value": "> 2", "unit": "fold"}]}, {"binder": "B4", "values": [{"measurement": "P1 score", "setting": "[4]", "value": 0.301}, {"measurement": "P2 score", "setting": "[5]", "value": 0.426}]}, {"binder": "B5", "values": [{"measurement": "fold affinity over an otherwise identical peptide with a different P1", "setting": "[6]", "value": 2, "unit": "fold"}]}, {"binder": "B6", "values": [{"measurement": "encoding efficiency (fraction of recording tags encoded)", "setting": "[7]", "value": "> 0.15"}]}, {"binder": "B7", "values": [{"measurement": "fold affinity over an otherwise identical peptide with a different P1", "setting": "[8]", "value": "> 2", "unit": "fold"}]}, {"binder": "B8", "values": [{"measurement": "P1 score", "setting": "[9]", "value": 0.0571}, {"measurement": "P2 score", "setting": "[10]", "value": 0.312}]}, {"binder": "B9", "values": [{"measurement": "fold affinity over an otherwise identical peptide with a different P1", "setting": "[11]", "value": "> 2", "unit": "fold"}]}, {"binder": "B10", "values": [{"measurement": "P1 score", "setting": "[12]", "value": 0.238}, {"measurement": "P2 score", "setting": "[13]", "value": 0.255}]}, {"binder": "B11", "values": [{"measurement": "fold affinity over an otherwise identical peptide with a different P1", "setting": "[14]", "value": "> 2", "unit": "fold"}]}]}
